Assay [1] addresses T1, recombinant human DLL4 (human, UniProt Q9NR61 25-522).
T1 construct: also called rhDLL4; hDLL4
As to the kind of experiment: binding ELISA, coated rhDLL4. On the procedure: In order to determine cross-reactivity to mouse DII4 a binding ELISA is performed. […] Wells are blocked with a casein solution (1% in PBS). VHHs are applied as dilution series and binding is detected using a mouse anti-myc (Roche) and an anti-mouse-AP conjugate (Sigma, St Louis, Mo., USA) (FIG. 7 A-H). As reference, binding to human DII4 is measured.
On the technique in general: ELISA stands for enzyme-linked immunosorbent assay.

The target in assay [2] is T1, recombinant human DLL4. As to the kind of experiment: hDLL4 ELISA screen, periplasmic extract.
The target in assay [3] is T1, recombinant human DLL4. As to the kind of experiment: AlphaScreen biot-hDLL4/hNotch1-Fc, periplasmic extract. A general note: Alpha assays give light when donor and acceptor beads are brought close together.
Assay [4] addresses T1, recombinant human DLL4. As to the kind of experiment: Biacore off-rate, periplasmic extract; heterogeneous fit, fast off-rate.
The target in assay [5] is T1, recombinant human DLL4. The assay can be described thus: Biacore off-rate, periplasmic extract; heterogeneous fit, slow off-rate. For orientation: SPR reads the build-up and loss of mass on a sensor chip optically.
In assay [6] the target is T2, VEGFB (UniProt P49765-2 22-188, limits assumed).
T2 sequence (looked up): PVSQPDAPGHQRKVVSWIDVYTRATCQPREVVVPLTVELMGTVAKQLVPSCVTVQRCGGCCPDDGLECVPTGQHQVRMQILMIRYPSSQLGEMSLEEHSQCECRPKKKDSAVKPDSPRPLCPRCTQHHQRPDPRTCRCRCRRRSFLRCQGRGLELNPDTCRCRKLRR
The assay can be described thus: solid phase binding ELISA, 500 nM-32 pM VHH. On the procedure: (§1) Binding to VEGFB, VEGFC, VEGFD and PIGF is assessed via a solid phase binding ELISA. […] Wells are blocked with a casein solution (1% in PBS). […] As positive controls serial dilutions of the appropriate receptors are taken along and detected with horseradish peroxidase (HRP)-conjugated goat anti-human IgG, Fc specific antibody (Jackson Immuno Research Laboratories Inc., West Grove, Pa., USA) and a subsequent enzymatic reaction in the presence of the substrate TMB (3,3′,5,5′-tetramentylbenzidine) (Pierce, Rockford, Ill., USA).

The target of assay [7] is T3, VEGFC (UniProt P49767 103-227, limits assumed).
T3 sequence (looked up): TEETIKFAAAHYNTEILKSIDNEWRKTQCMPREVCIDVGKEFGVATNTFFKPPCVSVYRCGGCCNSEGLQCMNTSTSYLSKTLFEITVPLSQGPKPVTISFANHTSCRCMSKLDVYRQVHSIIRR
As to the kind of experiment: solid phase binding ELISA, 500 nM-32 pM VHH. On the procedure:
as §1

The target in assay [8] is T4, VEGFD (UniProt O43915 93-201, limits assumed).
T4 sequence (looked up): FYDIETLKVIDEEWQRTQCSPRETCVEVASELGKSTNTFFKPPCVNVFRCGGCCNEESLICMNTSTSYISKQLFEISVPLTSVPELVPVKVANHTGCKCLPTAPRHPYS
As to the kind of experiment: solid phase binding ELISA, 500 nM-32 pM VHH. On the procedure: as §1

The target of assay [9] is T5, PIGF (UniProt P49763-2 21-149, limits assumed).
T5 construct: also called placenta growth factor
T5 sequence (looked up): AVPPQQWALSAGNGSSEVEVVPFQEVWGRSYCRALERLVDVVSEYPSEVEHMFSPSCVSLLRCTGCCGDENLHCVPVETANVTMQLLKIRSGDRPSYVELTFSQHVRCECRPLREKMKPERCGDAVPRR
As to the kind of experiment: solid phase binding ELISA, 500 nM-32 pM VHH. The method, then: as §1

The target in assay [10] is T6, recombinant human VEGF165 (human, UniProt P15692-4 27-191, biotinylated in the competition assays).
T6 construct: Bought protein; also called hVEGF165; rhVEGF165
As to the kind of experiment: SPR Biacore, hVEGF165. On the procedure:
(§2) Samples are injected for 2 min and allowed to dissociate up to 20 min at a flow rate of 45 μl/min. In between sample injections, the chip surface is regenerated with 100 mM HCl. HBS-EP+(Hepes buffer pH7.4+EDTA) is used as running buffer. Binding curves are fitted using a Two State Reaction model by Biacore T100 Evaluation Software v2.0.1.

Assay [11] addresses T6, recombinant human VEGF165. As to the kind of experiment: ProteOn off-rate assay, periplasmic extract on coated hVEGF165. The method, then: One additional variant is constructed in which the potential oxidation site at position M30 (CDR1 region, see FIG. 38 indicated as bold italic residue) is removed by introduction of a M30I mutation. […] Off-rates are calculated and compared to the off-rates of the parental VEGFBII5B05.

The target of assay [12] is T7, VEGF (used to stimulate HUVEC cells) (UniProt P15692-4 27-191, limits assumed). As to the kind of experiment: cell-based or functional assay.
In assay [13] the target is T7, VEGF (used to stimulate HUVEC cells). The assay can be described thus: cell-based or functional assay. The source holds these as a separate data set.
Assay [14] addresses T6, recombinant human VEGF165. The assay can be described thus: binding ELISA, coated rhVEGF165.
Target sequence in this assay (P15692 other isoform, or with tags, fused parts or gaps): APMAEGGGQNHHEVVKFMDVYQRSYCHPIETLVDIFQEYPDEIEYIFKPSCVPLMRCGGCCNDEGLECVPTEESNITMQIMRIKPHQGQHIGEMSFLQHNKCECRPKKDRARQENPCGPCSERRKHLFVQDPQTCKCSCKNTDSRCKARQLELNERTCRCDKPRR
Assay [15] concerns the target T8, recombinant mouse VEGF164 (mouse, UniProt Q00731-2 27-190, biotinylated as the labelled ligand of the mVEGF164/mVEGFR2 AlphaScreen).
T8 construct: also called mVEGF164; rmVEGF164
T8 sequence (looked up): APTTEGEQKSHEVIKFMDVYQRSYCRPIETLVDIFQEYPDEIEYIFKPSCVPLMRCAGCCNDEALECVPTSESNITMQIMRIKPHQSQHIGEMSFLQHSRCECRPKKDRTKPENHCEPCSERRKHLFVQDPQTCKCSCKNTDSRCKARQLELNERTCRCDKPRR
As to the kind of experiment: binding ELISA, coated rmVEGF164. On the procedure: Cross-reactivity to mouse VEGF164 is determined using a binding ELISA. […] Wells are blocked with a casein solution (1% in PBS). […] A mouse VEGF164 reactive mAb is included as positive control.

In assay [16] the target is T6, recombinant human VEGF165. As to the kind of experiment: ELISA, hVEGF165/hVEGFR2-Fc competition. On the set-up: % inhibition: concentration or dose not given beside the values.
The target in assay [17] is T6, recombinant human VEGF165. As to the kind of experiment: ELISA, hVEGF165/hVEGFR1-Fc competition. Set-up: % inhibition: concentration or dose not given beside the values.
Target sequence in this assay (P15692 other isoform, or with tags, fused parts or gaps): as the sequence (P15692 other isoform, or with tags, fused parts or gaps) above
Assay [18] concerns the target T6, recombinant human VEGF165. The assay can be described thus: AlphaScreen, hVEGF165/hVEGFR1-Fc competition. On the procedure: (§3) Finally, streptavidin donor beads (20 μg/ml) are added and after 1 hour of incubation in the dark, fluorescence is measured on the Envision microplate reader.
Target sequence in this assay (P15692 other isoform, or with tags, fused parts or gaps): as the sequence (P15692 other isoform, or with tags, fused parts or gaps) above
Assay [19] has as its target T6, recombinant human VEGF165. As to the kind of experiment: AlphaScreen, hVEGF165/hVEGFR2-Fc competition. The method, then: as §3
Target sequence in this assay (P15692 other isoform, or with tags, fused parts or gaps): as the sequence (P15692 other isoform, or with tags, fused parts or gaps) above
Assay [20] deals with T6, recombinant human VEGF165. The assay can be described thus: AlphaScreen, hVEGF165/hVEGFR2-Fc competition. On the set-up: % inhibition: concentration or dose not given beside the values. The method, then:
as §3

Assay [21] concerns the target T6, recombinant human VEGF165. As to the kind of experiment: AlphaScreen, hVEGF165/hVEGFR1-Fc competition. Set-up: % inhibition: concentration or dose not given beside the values. On the procedure:
as §3
Target sequence in this assay (P15692 other isoform, or with tags, fused parts or gaps): as the sequence (P15692 other isoform, or with tags, fused parts or gaps) above

The target of assay [22] is T6, recombinant human VEGF165. The assay can be described thus: SPR Biacore, immobilised hVEGF165, two state reaction model. The method, then: as §2
Target sequence in this assay (P15692 other isoform, or with tags, fused parts or gaps): as the sequence (P15692 other isoform, or with tags, fused parts or gaps) above

^{(a)}KD = kd1/kₐ₁ * (kd2/(kd2 + kₐ₂)) ^{(b)}Curves are fitted using a Two State Reaction model by Biacore T100 Evaluation Software v2.0.1

Where a chain is given by its changes, count along the chain named.

T1 sequence (Q9NR61 25-522): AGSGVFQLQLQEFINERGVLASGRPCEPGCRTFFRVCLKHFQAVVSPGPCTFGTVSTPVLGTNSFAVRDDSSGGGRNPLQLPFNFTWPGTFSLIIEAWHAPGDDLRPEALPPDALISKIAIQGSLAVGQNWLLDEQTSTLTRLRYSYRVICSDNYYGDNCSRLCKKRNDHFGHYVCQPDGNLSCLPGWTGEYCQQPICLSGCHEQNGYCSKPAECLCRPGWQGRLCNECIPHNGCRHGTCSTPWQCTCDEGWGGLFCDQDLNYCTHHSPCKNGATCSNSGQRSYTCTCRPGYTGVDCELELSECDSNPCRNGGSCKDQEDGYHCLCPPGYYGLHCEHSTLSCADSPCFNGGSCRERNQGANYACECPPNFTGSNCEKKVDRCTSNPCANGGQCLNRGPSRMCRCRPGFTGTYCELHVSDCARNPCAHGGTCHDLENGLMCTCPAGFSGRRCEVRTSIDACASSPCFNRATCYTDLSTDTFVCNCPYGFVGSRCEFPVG
T7 sequence (P15692 other isoform, or with tags, fused parts or gaps limits assumed): as the sequence (P15692 other isoform, or with tags, fused parts or gaps) above

B1: DLLBII17F10 (VHH)
VHH: EVQLVESGGGLVQAGGSLRLSCASSGRTLLNYAMGWFRQAPGKEREFVSGINWSGGSTYYADSVKGRFTISRDNAENTVYLHMNSLKPEDTAVYYCAAAHDNYWFTDDSLGRGLKYWGQGTQVTVSS
For B1, in assay [1], the EC50 stood at 900 pM. The “% inh” value in assay [2] stood at 98%; in assay [3], 88%. The koff in assay [4] was 0.0011 s⁻¹; in assay [5] it was 0.00031 s⁻¹.

B2: VEGFBII23B04 (VHH)
VHH: EVQLVESGGGLVQTGDSLRLSCEVSGRTFSSYSMGWFRQAQGKEREFVVAISKGGYKYDSVSLEGRFTISKDNAKNTVYLQINSLKPEDTAVYYCASSRAYGSSRLRLADTYEYWGQGTQVTVSS
notes: also called VEGFBII23B4
On to B2, for which the binding result in [6], in assay [7], in assay [8] and in [9] was “no binding (tested: 500 nM)” in each case.

B3: DLLBII17B03 (VHH)
VHH: EVQLVESGGGLVQPGGSLRLSCAASGFTFENYALGWFRQAPGKEREWVSCISSSDGTTYYADSVKGRFTISRDNVKNTVYLQMNRLKPEDTAIYYCALSLGSSWCAYDYWGQGTQVTVSS
As to B3, the “% inh” value in [2] stood at 76%; in assay [3], 77%. Moreover, the koff in assay [4] worked out at 0.0012 s⁻¹; in assay [5], 0.00022 s⁻¹.

B4: VEGFBII23A06 (VHH)
VHH: EVQLVESGGGLVQPGDSLKLSCAFSGRTFSSYSMGWFRQAQGKEREFVVAISSGGFIYDAVSLEGRFTISRDNTKNTVYLQTPSLKPEDTAVYYCAASRAYGSSRLRLADTYDYWGQGTQVTVSS
On to B4, for which the binding result in assay [6], in [7], in assay [8] and in assay [9] was “no binding (tested: 500 nM)” throughout.

B5: VEGFBII5B05 (VHH)
VHH: EVQLVESGGGLVQPGGSLRLSCVASGIRFMSMAWYRQAPGKHRELVARISSGGTTAYVDSVKGRFTISRDNSKNTVYLQMNSLKAEDTAVYYCNTFSSRPNPWGAGTQVTVSS
notes: also called VEGFBII05B05; VEGFBII5B05(wt)
Turning to B5, the Kd in assay [10] is 32000 pM. Further, in assay [11], the “binding level (RU)” value was found to be 242 RU and the koff came to 0.0615 s⁻¹.

B6: VEGFBII032 (VHH)
VHH: B5 VHH with V23A, M30I, H42Q, V58A, K84R, A105Q, Q108L
notes: also called VEGFBII0032
B6: the Kd in [10] turned out to be 44000 pM.

B7: VEGFBII021 (VHH, not shown: small tags and cut ends)
chain: EVQLVESGGGLVQTGDSLRLSCEVSGRTFSSYSMGWFRQAQGKEREFVVAISKGGYKYDSVSLEGRFTISKDNAKNTVYLQINSLKPEDTAVYYCASSRAYGSSRLRLADTYEYWGQGTQVTVSSGGGGSGGGGSGGGGSGGGGSGGGGSGGGGSGGGGSGGGGSEVQLVESGGGLVQPGGSLRLSCVASGIRFMSMAWYRQAPGKHRELVARISSGGTTAYVDSVKGRFTISRDNSKNTVYLQMNSLKAEDTAVYYCNTFSSRPNPWGAGTQVTVSS
notes: Bivalent (heterodimeric) anti-VEGF VHH; also called VEGFBII23B04-40GS-5B05
B7: in [12], the “% inhibition, VEGF HUVEC proliferation assay” value turned out to be 98% and the “IC50, VEGF HUVEC proliferation assay” value was 400 pM. Moreover, in assay [13], the “% inhibition, VEGF HUVEC Erk phosphorylation assay” value came out at 103% and the “IC50, VEGF HUVEC Erk phosphorylation assay” value is 210 pM. Moreover, the EC50 in assay [14] turned out to be 334 pM. The EC50 in assay [15] is 502 pM. Besides, in [16], the “% inhibition” value was found to be 100% and the IC50 turned out to be 204 pM. Also, in [17], the “% inhibition” value came to 97% and the IC50 is 254 pM. In [18], the “% inhibition” value is 100% and the IC50 worked out at 16 pM. Also, the IC50 in [19] was determined as 9 pM. In addition, in [20], the “% inhibition” value was determined as 100% and the IC50 is 7 pM. In addition, in assay [21], the “% inhibition” value was determined as 100% and the IC50 was found to be 12 pM. In assay [22], the Kd stood at 70 pM, the ka1 amounted to 1.2e+06 M⁻¹ s⁻¹, the ka2 was determined as 0.023 s⁻¹ and the kd1 came to 0.011 s⁻¹. In addition, in assay [22], the kd2 came to 0.00019 s⁻¹.

For orientation: EC50 means the concentration needed to bring the measured effect to its halfway point. For orientation: koff means the first-order rate constant of dissociation. As usually defined, the Kd is the equilibrium constant for the complex coming apart. Broadly, the % inhibition is how much of the control response was suppressed. The term IC50 denotes the concentration at which inhibition is half-maximal.

(Values after patent US20140120095A1 (Boehringer Ingelheim, published 2014).)
